Measured values published in the supplement of paper PMC9170038.

test system: K4 kissing-loop RNA reporter; assay: apparent KD of K4 kissing-loop reporter; higher = weaker reporter binding; conditions: Eterna round: R107; input ligand: arginine 13.2 mM
Description: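 RNA-MaP round R107: designed RNA switches with theophylline, tryptophan, arginine or FMN aptamers are transcribed on-chip within common flanks. They are titrated with a labelled K4 kissing-loop RNA reporter in RNA-MaP buffer (100 mM Tris pH 7.5, 80 mM KCl, 4 mM MgCl2), without ligand or with the indicated ligand. Median apparent KD per design.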
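Note: bound reporter read as fluorescence of individual clusters on recovered sequencing chips by microscopy, with normalized cluster intensities fitted with a binding model.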

Compared with “CCGGGCGGCCGAAGGAGCGGGCGGACCCGAGUGAUGUUCGGGUGGACCGUGAGGUCCGGUGCCCAGGUAGGUCGCGGUUCCGCCC [#2 Same State - Arginine B Attempt #5 (HarryS)]”, “UAUUAAUAAUUAUUCUAGUGAUGUUAGAUACGAGGACCGGUACGGCCGCCACUCGCUUAUUGGUUUAUAAAUUUUAUAUUAUUUA [JR_SSTryptoA_Sub017]” is 1.7-fold higher in “apparent KD of K4 kissing-loop reporter” value: 123 nM for the first, 207 nM for the second.

“CACCGCAACUGAAGGAGCGCGCCAGUGAUGUUGGACGGCUUUGUCAAGGAAACUGCACCGGUGCAGGUAGGUCGCAGUUCGCGGC [Ededisa]” and “CCCAAAAUAUGCAGUGAUGUUGCAACUGAUACCAGUAUCGAAAGAUACCCUUGGCAGCGGAAAACCGCUACGUAAUUUAAAAGGG [Ex Theophylline A K4 18]” are within 1.5-fold of each other in “apparent KD of K4 kissing-loop reporter” value: 256 nM for the first, 292 nM for the second.

First: GGCCGGAAGGCGAGCGCUCCCACUCCGGAAGGAGCGCCCGGAAGGGCAGGUAGGUCGCCGGAGUGAUGUUCCGGUGGAGGGCUCG [#2 Exclusion - Arginine A Attempt #19 (Inspired by Omei)]
Second: CGAGUGAUGUUCGUUCGUUUAUUUCGUUGACAGGAUAUGCGGAAACGCAGAAGGGUCACCUUUGAGUUAACGGAAUUUACGUUAU [Ex FMN A 27]
The “apparent KD of K4 kissing-loop reporter” value of the first is 4.1-fold lower: 120 nM for the first, 487 nM for the second.

First: CCGCUACCCUCAGGAUAUUAAAUAUUAGUGAUGUUAGUAAACCGAUGGCGAAAGCCAUCGGUAUGUUGAGAAGGGAGGGUAGCGG [whbob_SS_FMNB__2th197]
Second: AUUCAUUUCAGAGGAUAUCGAUGGAGAGUGAUGUUCUCCCAUAGCCAGUGAUGUUGGCUAGCUAUUCGAGAAGGCUGUGGGUGGA [Same State FMN B GF 27]
The “apparent KD of K4 kissing-loop reporter” value of the first is 8-fold higher: 1810 nM for the first, 227 nM for the second.

Going from “GCUAUGGUAGGAAGGAGCGCUACUUUGUUUUUACGAGUGAUGUUCGGAAGCAGAGUGUUAAAGCAGGUAGGUCGCCUACUAUAGC [Arginine B K4 20]” to “ACACUAUCGUCAUAGACGGUAGUGAAAGCUCAGGAUAUGAGUGAUGUUAGAAGGGAGUAAAUCUUAGGUAUCGAAUAGAUACCAA [FmnA 7 #K4BetweenAptamer #OpenEnded]”, the “apparent KD of K4 kissing-loop reporter” value rises from 154 nM to 364 nM (2.4-fold).

“UCCUAGGCUCGAAAGAGCCUAGGUAAGACUCAGGAUAUCUGGAAACAGAGAAGGGAGCUACUAGUGAUGUUAGGAAUUCCCAUUU” and “UUAAUAAUUCAAGGAUAUGUUUUCUAUUUCGAGUGAUGUUCGGAAUUAAUAAAUUUAAAAGAUUAUACAGAAGGUGAUGGAUAGU [Cynwulf-mod#4]” are within 1.5-fold of each other in “apparent KD of K4 kissing-loop reporter” value: 94.7 nM for the first, 117 nM for the second.

Going from “GACAUCUAUCGCCGAUAGUGUUUAUCUUGGGAGGAUAUGUCAGCGGACAGAAGGCCCAGUGAUGUUGGGUAGAUGACCGUUGCUU [Edbiza]” to “AGUGGACGUGUCCGGAGUGAUGUUCCGGAUACCAGACACGAAAGUGUCCCUUGGCAGCCGGAGUGAUGUUCCGGCGUUCACUAAA [Omei KL Theo A Exc B v1]”, the “apparent KD of K4 kissing-loop reporter” value rises from 114 nM to 185 nM (1.6-fold).

First: CUGGGUUGACGAAAAGUCAACAAAAGAGAAGGAGCGCACGAAAGUGCAGGUAGGUCGCUCAAUCCAGUGAUGUUGGGUCAUCCAG [#SwitchBubble 14 #K4Late]
Second: GGAUAGGACAGAGGAUAUGGUAGUGAUGUUACCAAACUGGUUACUAAUGUCAGAAAACUGGCAAAUCCAGAAGGCUGUCCUAUCG [KL-XFMN-B13]
The “apparent KD of K4 kissing-loop reporter” value of the first is 7.6-fold higher: 580 nM for the first, 76.3 nM for the second.

Going from “GUCUCCGUCGAUGAUACCAGUCGAUGUACGUCAGGUACCCUUUGAGUGAUGUUCAGAUUAGACCCUUGGCAGCAUAUCGAGGCUC [theeternabot_exclusion_KL_Theo_B_24]” to “GGGAACUCUUACGAUACCAGCCGGAGUGAUGUUCCGUGCUUGGACGUAGUAACCCGCACCGGCCCUUGGCAGCGUGGAUCUUGUG [Esgeonin]”, the “apparent KD of K4 kissing-loop reporter” value falls from 452 nM to 65.5 nM (6.9-fold).

First: UCCUAGGCUCGAAAGAGCCUAGGAUUAUCUCAGGAUAUCCGGAAACGGAGAAGGGAGAAACUAGUGAUGUUAGGGAUUCCCUAUU
Second: UUUGGUUUCUCGGCCGCCACUCGUUGUCUAUGGGCUUCAGGGAUAUAGUGAUGUUAUGUAUAGAAGAGGACCGGGAGAAGGUUUU [ExTryptoB.Dv]
The “apparent KD of K4 kissing-loop reporter” value of the first is 2.4-fold higher: 184 nM for the first, 77.9 nM for the second.

Going from “GUGGGCUCGGGAGGAUAUGAGUCUAGUGAUGUUAGGCGGUCCAUGCGCGUGGCGCGUUAUGCCCUUUUAGAAGGCCCGAGCCCUC [#2 Exclusion - FMN B Attempt #24 (HarryS)]” to “GGUGACGGCCAGGAGUGAUGUAUAGAAUAGCGAGGACCGGUACGGCCGCCACUCGUGAAGAAAAGGGAGUGAUGUUCCGUAAUGU [Kazoo]”, the “apparent KD of K4 kissing-loop reporter” value rises from 68.8 nM to 122 nM (1.8-fold).

First: GUGCGGUGGAGGCUACCGCUACUCUGAGAAGGAGCGCAGAAGACUGCAGGUAGGUCGCUUAGAGCUUGCAGUGAUGUUGCAAGUU [KL-SSArg-A18]
Second: CUUCUUCUUCCAAUCUCGGCCAACACGGGACGAGGACCGGUACGGCCGCCACUCGUGCAGUGAUGUUGCACGAUGGUGACGGAGA [Engebiisso]
The “apparent KD of K4 kissing-loop reporter” value of the first is 1.7-fold higher: 135 nM for the first, 81.1 nM for the second.

First: CCGCCGGUCGGAAGGAGCGCACGCCAGAGUGAUGUUCUGGCGCGGGCACUUUAUGCCCGCGUGCAGGUAGGUCGCCGAUUCUGGC [Mabema]
Second: UGGCGUAGAACCGCCGAAUCGCUGUGAGAAGGAGCGGUAAAAUUGCCAGGUAGGUCGCUCACAGCCUCACAGUGAUGUUGUGGGA [Cequralaza]
The “apparent KD of K4 kissing-loop reporter” value of the first is 4.1-fold higher: 426 nM for the first, 105 nM for the second.

In the case of “GUAUCGCUAGGAGGAUAUUUCAAUUCGCCUAUAAAAGGUGAUACGGAGUGAUGUUCCGAUUUACGGAAAGAAGGCCUAGUGAUAC [FMN B 9]”, the “apparent KD of K4 kissing-loop reporter” value is reported as 259 nM.
